This passage reports NaSCN concentration, binding result and Kd results from US20090286854A1, “APTAMERS DIRECTED TO MUCI” (The Open University, published 2009).

Series [1] addresses 5TR MUC1 recombinant protein (human). Description: affinity chromatography, elution from the MUC1 chromatography matrix.
For series [2], the target named is MUC1 5TR glycosylated with GalNAc (Tn antigen) (Homo sapiens, UniProt P15941 P15941:161-260). The experiment in a line: pulldown; Ni-NTA magnetic beads, 100 mM NaCl, 5 mM MgCl2, pH 7.4, 37 C; values in figure only. The settings on record: tags: 6xHis; expressed in E. coli BL21; glycosylated in vitro with ppGalNAc-T1. The protocol:
The Qiagen kit containing agarose magnetic beads in the proportion of 5% solution coated with nickel for His-tag purification was used for the assay. Seven tubes each containing 900 μl of start buffer (100 mM NaCl₂, 5 mM MgCl₂, pH 7.4) used to resuspend a 10 μM solution of glycosylated MUC1 5TR peptide were prepared according to manufacturer's instructions:
10 μl of the 5% beads solution was added to the solution and incubated at 4° C. for half an hour with shaking, After 30 minutes, supernatant was removed. The beads were washed by adding start buffer, allowing 1-5 min of washing time. 1 mM (500 μl) of each Glycosylated MUC1 aptamer solution in start buffer were added to the previously prepared magnetic beads containing his-tagged glycosylated MUC1. The solution containing complexed beads and aptamer solution were allowed to incubate at 37° C. for 1 hour with shaking.
After one hour the supernatant was removed and its absorbance was measured using a UV spectrometer (Eppendorf, USA) at 260 nm. The remaining Magnetic beads were washed three times with 500 μl of wash buffer (150 mM NaCl₂, 5 mM MgCl₂, pH 7.4). The supernatant was removed and 50 μl of elution buffer (1.5M NaCl₂, 5mM MgCl₂, pH 7.4) were added. The elution buffer was allowed to incubate with magnetic beads for 5 min with shaking. The magnetic beads were spun for 30 seconds at 4000 rpm to a pellet. The magnetic beads were attracted by a magnetic bar and supernatant was removed. The eluted supernatant was removed and measured using a UV spectrometer (Eppendorf, USA) 260 absorbance.

The target of series [3] is T1, MUC1 5TR (five tandem repeat recombinant MUC1, unglycosylated) (Homo sapiens, UniProt P15941 P15941:161-260). The experiment in a line: SPR; 100 mM NaCl, 5 mM MgCl2, pH 7.4; printed ka and kd would give 0.83 nM. The settings on record: tags: 6xHis; expressed in E. coli BL21; biotin-XX labelled for SPR; about 11.8 kDa. As for the experimental part:
(§1) Biotinylated 5TR-MUC1 protein was immobilised on a BIAcore SA sensor chip (gold-streptavidin) and the system was optimised to reduce mass transport, steric hindrance, crowding, avidity and aggregation. A range of peptide concentrations, ranging from 1 μM to 1 nM were tested under different injection times and the optimum conditions used were 100 μL of 1 nM peptide in running buffer perfused over each individual channel at the rate of 25 μL/min for […]. Chip regeneration to peptide level was followed by the subsequent application of a 30 sec pulse with a solution of 10 mM NaOH. The aptamers were prepared in their selection buffers (phosphate buffer containing 100 mM NaCl, 5 mM MgCl₂, pH 7.4) at 1 μM and were applied with 30 sec injections with a 5 sec wash step with selection buffer to allow for non-specific analyte removal. The chip surfaces were regenerated (elution step) by the application of a 10 μL pulse of 1.5 M NaCl, 5 mM MgCl₂, pH 7.4.
(§2) The experimental BIAcore data were fitted to two mathematical equations for the determination of association (kₐ) and dissociation constants (kd) using non-linear regression analysis. […]
(§3) The concentration of free aptamer was assumed to be constant since an excess amount was applied to the system when compared to the amount of MUC1. […] The Kd was calculated from the following relationship: Kd is equal to kd/kₐ. […]
(In general: SPR reads the build-up and loss of mass on a sensor chip optically.)

Series [4] addresses T1, MUC1 5TR (five tandem repeat …). Description: SPR; 100 mM NaCl, 5 mM MgCl2, pH 7.4; printed ka and kd would give 0.69 nM. The settings on record: tags: 6xHis; expressed in E. coli BL21; biotin-XX labelled for SPR; about 11.8 kDa. As for the experimental part: as §1, §2, §3
Series [5] has the same target. The experiment in a line: SPR; 100 mM NaCl, 5 mM MgCl2, pH 7.4; printed ka 0.207e7, kd 0.00098 would give 0.47 nM. The settings on record: tags: 6xHis; expressed in E. coli BL21; biotin-XX labelled for SPR; about 11.8 kDa. As for the experimental part:
as §1, §2, §3

For series [6] the target is unchanged. Description: SPR; 100 mM NaCl, 5 mM MgCl2, pH 7.4; printed ka and kd would give 0.85 nM; p17 and claim list print SEQ 2 with 3' G instead of C. Conditions: tags: 6xHis; expressed in E. coli BL21; biotin-XX labelled for SPR; about 11.8 kDa. As for the experimental part: as §1, §2, §3

T1 sequence (P15941 141-240, one chain of several): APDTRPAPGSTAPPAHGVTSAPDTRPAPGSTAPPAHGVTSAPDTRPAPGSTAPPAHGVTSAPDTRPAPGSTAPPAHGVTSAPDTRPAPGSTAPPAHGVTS
MUC1 5TR glycosylated with GalNAc (Tn antigen), sequence (P15941 141-240, one chain of several): as above
5TR MUC1 recombinant protein (human), sequence (main, as listed by the source): as the sequence (P15941 141-240, one chain of several) above

In the case of C595 anti-MUC1 monoclonal antibody, the NaSCN concentration at elution from the affinity matrix in series [1] is 0.8 M.
Regarding GGGTTATATTACTCGGCCGGTGTAA (ssDNA) [5TR-T1], the binding result in series [2] is recorded as “binds”.
As to GCTGGGTAAATAGATGATTCCCGGC (ssDNA) [5TR-T4], the binding result in series [2] is on record as “binds”.
Broadly, the Kd is the equilibrium constant for the complex coming apart. In the case of CAAACAATCAAACAGCAGTGGGGTG (ssDNA) [MUC1 5TR-3], the Kd in series [3] amounted to 83 nM.
CGGTCTACGGAGCCGCGTTAAACTT (ssDNA) [5TR-T7]: the binding result in series [2] is “binds”.
For TACTGCATGCACACCACTTCAACTA (ssDNA) [MUC1 5TR-4], the dissociation constant Kd in series [4] worked out at 69 nM.
Take AGTGGTGGTTTTATAAGACTGATAC (ssDNA) [5TR-T5]: the binding result in series [2] is reported as “binds”.
With GAAGTGAAAATGACAGAACACAACA (ssDNA) [MUC1 5TR-1], the Kd in series [5] worked out at 47.3 nM.
For the molecule GGCTATAGCACATGGGTAAAACGAC (ssDNA) [MUC1 5TR-2], the Kd in series [6] is 85.2 nM.
In the case of GGCGTACGGTAGGCGGGGTCAACTG (ssDNA) [5TR-T3], the binding result in series [2] was “binds”.
In the case of TAGCCTTAATGCCTTTGTAAGGCGA (ssDNA) [5TR-T6], in series [2], the binding result is recorded as “binds”.
